Patent US6084068, “Elongin A and C functional domains” (Oklahoma Medical Research Foundation, dated 2000)

T1: Elongin BC complex (wild type rat Elongin B and C) (rat, UniProt P62870)
T1 chain 1: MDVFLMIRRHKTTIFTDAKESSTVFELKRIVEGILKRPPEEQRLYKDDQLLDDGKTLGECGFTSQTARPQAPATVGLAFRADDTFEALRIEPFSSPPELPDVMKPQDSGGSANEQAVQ
T1 chain 2: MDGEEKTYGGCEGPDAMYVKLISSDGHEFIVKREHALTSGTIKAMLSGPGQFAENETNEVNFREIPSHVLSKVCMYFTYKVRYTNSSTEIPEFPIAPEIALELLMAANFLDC


Target: T1, Elongin BC complex (wild type rat …)
Experiment: refolded with wild type Elongin B and C; TSK SP-NPR HPLC, SDS-PAGE, silver staining

Binder | binding result
Elongin A internal deletion mutant Δ441-480 (other) MAAESALQVVEKLQARLAANPDPKKLLKYLKKLSVLPITVDILVETGVGKTVNSFRKHEQVGNFARDLVAQWKKLVPVERNNEAEDQDFEKSNSRKRPRDVPQQEEEAEGNYQESWQASGSQPYSPEHRQKKHRKLPELERPHKVAHGHERRDERKRCHKVSPPYSSDPESSDYGHVQSPPPSSPHQMYTDLSRSPEMDQEPIVSHPKPGKVHSNTFQDRLGVSHLGEHQGKGAVSQNKPHKSSHKEKRPVDARGDEKSSVMGREKSHKASSKEESRRLLSEDSAKEKLPSSVVKKEKDREGNSLKKKLSPALDVASDNHFKKPKHKDSEKIKSDKNKQSVDSVDSGRGTGDPLPRAKDKVPNNLKAQEGKVRTNSDRKSPGSLPKVEEMDMDDEFEQPTMSFESYLSYDQPRKKKKKVVKTSGTALGEKGLKKKDSKSTALPDIPLPAIQTNYRPLPSLELISSFQPKRKAFSSPQEEEEAGFTGRRMNSKMQVYSGSKCAYLPKMMTLHQQCIRVLKNNIDSIFEVGGVPYSVLEPVLERCTPDQLYRIEECNHVLIEETDQLWKVHCHRDFKEERPEEYESWREMYLRLQDAREQRLRLLTNNIRSAHANKPKGRQAKMAFVNSVAKPPRDVRRRQEKFGTGGAAVPEKVRIKPAPYTTGSSHVPASNSSSSFHSSPEELAYEGPSTSSAHLAPVASSSVSYDPRKPAVKKIAPMMAKTIKAFKNRFSRR | binds
Elongin A point mutant T549I (other) MAAESALQVVEKLQARLAANPDPKKLLKYLKKLSVLPITVDILVETGVGKTVNSFRKHEQVGNFARDLVAQWKKLVPVERNNEAEDQDFEKSNSRKRPRDVPQQEEEAEGNYQESWQASGSQPYSPEHRQKKHRKLPELERPHKVAHGHERRDERKRCHKVSPPYSSDPESSDYGHVQSPPPSSPHQMYTDLSRSPEMDQEPIVSHPKPGKVHSNTFQDRLGVSHLGEHQGKGAVSQNKPHKSSHKEKRPVDARGDEKSSVMGREKSHKASSKEESRRLLSEDSAKEKLPSSVVKKEKDREGNSLKKKLSPALDVASDNHFKKPKHKDSEKIKSDKNKQSVDSVDSGRGTGDPLPRAKDKVPNNLKAQEGKVRTNSDRKSPGSLPKVEEMDMDDEFEQPTMSFESYLSYDQPRKKKKKVVKTSGTALGEKGLKKKDSKSTSKNLNSAQKLPKANENKSDKLQPAGAEPTRPRKVPTDVLPALPDIPLPAIQTNYRPLPSLELISSFQPKRKAFSSPQEEEEAGFTGRRMNSKMQVYSGSKCAYLPKMMILHQQCIRVLKNNIDSIFEVGGVPYSVLEPVLERCTPDQLYRIEECNHVLIEETDQLWKVHCHRDFKEERPEEYESWREMYLRLQDAREQRLRLLTNNIRSAHANKPKGRQAKMAFVNSVAKPPRDVRRRQEKFGTGGAAVPEKVRIKPAPYTTGSSHVPASNSSSSFHSSPEELAYEGPSTSSAHLAPVASSSVSYDPRKPAVKKIAPMMAKTIKAFKNRFSRR | binds
Elongin A point mutant V557E (other) MAAESALQVVEKLQARLAANPDPKKLLKYLKKLSVLPITVDILVETGVGKTVNSFRKHEQVGNFARDLVAQWKKLVPVERNNEAEDQDFEKSNSRKRPRDVPQQEEEAEGNYQESWQASGSQPYSPEHRQKKHRKLPELERPHKVAHGHERRDERKRCHKVSPPYSSDPESSDYGHVQSPPPSSPHQMYTDLSRSPEMDQEPIVSHPKPGKVHSNTFQDRLGVSHLGEHQGKGAVSQNKPHKSSHKEKRPVDARGDEKSSVMGREKSHKASSKEESRRLLSEDSAKEKLPSSVVKKEKDREGNSLKKKLSPALDVASDNHFKKPKHKDSEKIKSDKNKQSVDSVDSGRGTGDPLPRAKDKVPNNLKAQEGKVRTNSDRKSPGSLPKVEEMDMDDEFEQPTMSFESYLSYDQPRKKKKKVVKTSGTALGEKGLKKKDSKSTSKNLNSAQKLPKANENKSDKLQPAGAEPTRPRKVPTDVLPALPDIPLPAIQTNYRPLPSLELISSFQPKRKAFSSPQEEEEAGFTGRRMNSKMQVYSGSKCAYLPKMMTLHQQCIRELKNNIDSIFEVGGVPYSVLEPVLERCTPDQLYRIEECNHVLIEETDQLWKVHCHRDFKEERPEEYESWREMYLRLQDAREQRLRLLTNNIRSAHANKPKGRQAKMAFVNSVAKPPRDVRRRQEKFGTGGAAVPEKVRIKPAPYTTGSSHVPASNSSSSFHSSPEELAYEGPSTSSAHLAPVASSSVSYDPRKPAVKKIAPMMAKTIKAFKNRFSRR | binds
Elongin A point mutant C554F (other) MAAESALQVVEKLQARLAANPDPKKLLKYLKKLSVLPITVDILVETGVGKTVNSFRKHEQVGNFARDLVAQWKKLVPVERNNEAEDQDFEKSNSRKRPRDVPQQEEEAEGNYQESWQASGSQPYSPEHRQKKHRKLPELERPHKVAHGHERRDERKRCHKVSPPYSSDPESSDYGHVQSPPPSSPHQMYTDLSRSPEMDQEPIVSHPKPGKVHSNTFQDRLGVSHLGEHQGKGAVSQNKPHKSSHKEKRPVDARGDEKSSVMGREKSHKASSKEESRRLLSEDSAKEKLPSSVVKKEKDREGNSLKKKLSPALDVASDNHFKKPKHKDSEKIKSDKNKQSVDSVDSGRGTGDPLPRAKDKVPNNLKAQEGKVRTNSDRKSPGSLPKVEEMDMDDEFEQPTMSFESYLSYDQPRKKKKKVVKTSGTALGEKGLKKKDSKSTSKNLNSAQKLPKANENKSDKLQPAGAEPTRPRKVPTDVLPALPDIPLPAIQTNYRPLPSLELISSFQPKRKAFSSPQEEEEAGFTGRRMNSKMQVYSGSKCAYLPKMMTLHQQFIRVLKNNIDSIFEVGGVPYSVLEPVLERCTPDQLYRIEECNHVLIEETDQLWKVHCHRDFKEERPEEYESWREMYLRLQDAREQRLRLLTNNIRSAHANKPKGRQAKMAFVNSVAKPPRDVRRRQEKFGTGGAAVPEKVRIKPAPYTTGSSHVPASNSSSSFHSSPEELAYEGPSTSSAHLAPVASSSVSYDPRKPAVKKIAPMMAKTIKAFKNRFSRR | binds

Second part, the binder after the results:

binding result | Binder
binds | Elongin A deletion mutant 1-730 (other) MAAESALQVVEKLQARLAANPDPKKLLKYLKKLSVLPITVDILVETGVGKTVNSFRKHEQVGNFARDLVAQWKKLVPVERNNEAEDQDFEKSNSRKRPRDVPQQEEEAEGNYQESWQASGSQPYSPEHRQKKHRKLPELERPHKVAHGHERRDERKRCHKVSPPYSSDPESSDYGHVQSPPPSSPHQMYTDLSRSPEMDQEPIVSHPKPGKVHSNTFQDRLGVSHLGEHQGKGAVSQNKPHKSSHKEKRPVDARGDEKSSVMGREKSHKASSKEESRRLLSEDSAKEKLPSSVVKKEKDREGNSLKKKLSPALDVASDNHFKKPKHKDSEKIKSDKNKQSVDSVDSGRGTGDPLPRAKDKVPNNLKAQEGKVRTNSDRKSPGSLPKVEEMDMDDEFEQPTMSFESYLSYDQPRKKKKKVVKTSGTALGEKGLKKKDSKSTSKNLNSAQKLPKANENKSDKLQPAGAEPTRPRKVPTDVLPALPDIPLPAIQTNYRPLPSLELISSFQPKRKAFSSPQEEEEAGFTGRRMNSKMQVYSGSKCAYLPKMMTLHQQCIRVLKNNIDSIFEVGGVPYSVLEPVLERCTPDQLYRIEECNHVLIEETDQLWKVHCHRDFKEERPEEYESWREMYLRLQDAREQRLRLLTNNIRSAHANKPKGRQAKMAFVNSVAKPPRDVRRRQEKFGTGGAAVPEKVRIKPAPYTTGSSHVPASNSSSSFHSSPEELAYEGPST
binds | Elongin A internal deletion mutant Δ401-440 (other) MAAESALQVVEKLQARLAANPDPKKLLKYLKKLSVLPITVDILVETGVGKTVNSFRKHEQVGNFARDLVAQWKKLVPVERNNEAEDQDFEKSNSRKRPRDVPQQEEEAEGNYQESWQASGSQPYSPEHRQKKHRKLPELERPHKVAHGHERRDERKRCHKVSPPYSSDPESSDYGHVQSPPPSSPHQMYTDLSRSPEMDQEPIVSHPKPGKVHSNTFQDRLGVSHLGEHQGKGAVSQNKPHKSSHKEKRPVDARGDEKSSVMGREKSHKASSKEESRRLLSEDSAKEKLPSSVVKKEKDREGNSLKKKLSPALDVASDNHFKKPKHKDSEKIKSDKNKQSVDSVDSGRGTGDPLPRAKDKVPNNLKAQEGKVRTNSDRKSPGSLPKVEEMDMDDEFEQPTSKNLNSAQKLPKANENKSDKLQPAGAEPTRPRKVPTDVLPALPDIPLPAIQTNYRPLPSLELISSFQPKRKAFSSPQEEEEAGFTGRRMNSKMQVYSGSKCAYLPKMMTLHQQCIRVLKNNIDSIFEVGGVPYSVLEPVLERCTPDQLYRIEECNHVLIEETDQLWKVHCHRDFKEERPEEYESWREMYLRLQDAREQRLRLLTNNIRSAHANKPKGRQAKMAFVNSVAKPPRDVRRRQEKFGTGGAAVPEKVRIKPAPYTTGSSHVPASNSSSSFHSSPEELAYEGPSTSSAHLAPVASSSVSYDPRKPAVKKIAPMMAKTIKAFKNRFSRR
binds | Elongin A deletion mutant 1-680 (other) MAAESALQVVEKLQARLAANPDPKKLLKYLKKLSVLPITVDILVETGVGKTVNSFRKHEQVGNFARDLVAQWKKLVPVERNNEAEDQDFEKSNSRKRPRDVPQQEEEAEGNYQESWQASGSQPYSPEHRQKKHRKLPELERPHKVAHGHERRDERKRCHKVSPPYSSDPESSDYGHVQSPPPSSPHQMYTDLSRSPEMDQEPIVSHPKPGKVHSNTFQDRLGVSHLGEHQGKGAVSQNKPHKSSHKEKRPVDARGDEKSSVMGREKSHKASSKEESRRLLSEDSAKEKLPSSVVKKEKDREGNSLKKKLSPALDVASDNHFKKPKHKDSEKIKSDKNKQSVDSVDSGRGTGDPLPRAKDKVPNNLKAQEGKVRTNSDRKSPGSLPKVEEMDMDDEFEQPTMSFESYLSYDQPRKKKKKVVKTSGTALGEKGLKKKDSKSTSKNLNSAQKLPKANENKSDKLQPAGAEPTRPRKVPTDVLPALPDIPLPAIQTNYRPLPSLELISSFQPKRKAFSSPQEEEEAGFTGRRMNSKMQVYSGSKCAYLPKMMTLHQQCIRVLKNNIDSIFEVGGVPYSVLEPVLERCTPDQLYRIEECNHVLIEETDQLWKVHCHRDFKEERPEEYESWREMYLRLQDAREQRLRLLTNNIRSAHANKPKGRQAKMAFVNSVAKPPRDVRRRQE
binds | Elongin A deletion mutant 1-630 (other) MAAESALQVVEKLQARLAANPDPKKLLKYLKKLSVLPITVDILVETGVGKTVNSFRKHEQVGNFARDLVAQWKKLVPVERNNEAEDQDFEKSNSRKRPRDVPQQEEEAEGNYQESWQASGSQPYSPEHRQKKHRKLPELERPHKVAHGHERRDERKRCHKVSPPYSSDPESSDYGHVQSPPPSSPHQMYTDLSRSPEMDQEPIVSHPKPGKVHSNTFQDRLGVSHLGEHQGKGAVSQNKPHKSSHKEKRPVDARGDEKSSVMGREKSHKASSKEESRRLLSEDSAKEKLPSSVVKKEKDREGNSLKKKLSPALDVASDNHFKKPKHKDSEKIKSDKNKQSVDSVDSGRGTGDPLPRAKDKVPNNLKAQEGKVRTNSDRKSPGSLPKVEEMDMDDEFEQPTMSFESYLSYDQPRKKKKKVVKTSGTALGEKGLKKKDSKSTSKNLNSAQKLPKANENKSDKLQPAGAEPTRPRKVPTDVLPALPDIPLPAIQTNYRPLPSLELISSFQPKRKAFSSPQEEEEAGFTGRRMNSKMQVYSGSKCAYLPKMMTLHQQCIRVLKNNIDSIFEVGGVPYSVLEPVLERCTPDQLYRIEECNHVLIEETDQLWKVHCHRDFKEERPEEYESWREMYL
